Data taken from IntAct's records for PubMed 10230800.

B1: Slowpoke-binding protein (Drosophila melanogaster (Fruit fly)), Q8IPH9 (parent)
chain: MFKFNKAAQQQRIDNRNSAVTGHDPFVRPPVPEKKVRNIMKKLHKANGLKRSNSAIEFDVSALTAANRRQIYSSNRSASSEQDNSDLSEHSEKSPLVSARLDNLARLFFSKSMPAETGSRDTIDSVLTTRPNIKYQYSALDSGNGIVERSPRERAQREKALNATQEWIQGANGRYEVIAHLDEIGSRHGKNWFLVTDASVRTDRLQTLLPLPPDCVAFEDLPPNECAREILMELLGSLHHPYIYPVLDLGFLRNSSYNYACLVTPFNSRGSLKDLIYKAQWNEPWARKYTRKPNGLPVSQVQRLGRQILEALLFLKERGFPLHGHLHSGNVILQNGAARLSGLENGLLGLSSRINAVMWSRSVTEIENVDIVCFGHLLYEMCTGQELTTPKPSMRVLEMELQHYPQIGQTRKQILEILGLIFEPPSGVCPSVEDLVLCDLFRSIDLRELRGPCFSTIKPSLSRSTLNLLQAVKKRQCASLGHSLSEANSPCTPPSTPHDRRTGVLPAPYEVFRMY
partner: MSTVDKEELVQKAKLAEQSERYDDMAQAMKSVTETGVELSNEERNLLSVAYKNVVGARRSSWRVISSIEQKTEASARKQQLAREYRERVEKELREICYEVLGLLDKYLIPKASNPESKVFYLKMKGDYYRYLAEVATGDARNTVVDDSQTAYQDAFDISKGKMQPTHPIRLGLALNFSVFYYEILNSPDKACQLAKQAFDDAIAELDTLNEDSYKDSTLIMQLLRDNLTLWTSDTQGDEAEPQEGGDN

Variants of: B1
Conditions: with 1433z_drome 14-3-3zeta

Row | effect of a mutation on the interaction | Variant
1 | decreasing interaction strength | S54A;S79A
